From patent publication US20260151519A1 (AKTIS ONCOLOGY, published 2026)
Primed or numbered codes have the meaning given here. Where no end group is shown, it is not given here. [ ]: non-standard residue; d: D form. The star is where a group is joined. Biotin = O=C1N[C@H]2[C@H](CS[C@H]2CCCCC(=O)*)N1; Lys(Me3) = C[N+](C)(C)CCCC[C@H](N)C(=O)O; PEG4′ = not defined here

T1: SPNS2 (human, UniProt Q8IVW8 1-549)
T1 construct: whole, on cells
T1 sequence (looked up): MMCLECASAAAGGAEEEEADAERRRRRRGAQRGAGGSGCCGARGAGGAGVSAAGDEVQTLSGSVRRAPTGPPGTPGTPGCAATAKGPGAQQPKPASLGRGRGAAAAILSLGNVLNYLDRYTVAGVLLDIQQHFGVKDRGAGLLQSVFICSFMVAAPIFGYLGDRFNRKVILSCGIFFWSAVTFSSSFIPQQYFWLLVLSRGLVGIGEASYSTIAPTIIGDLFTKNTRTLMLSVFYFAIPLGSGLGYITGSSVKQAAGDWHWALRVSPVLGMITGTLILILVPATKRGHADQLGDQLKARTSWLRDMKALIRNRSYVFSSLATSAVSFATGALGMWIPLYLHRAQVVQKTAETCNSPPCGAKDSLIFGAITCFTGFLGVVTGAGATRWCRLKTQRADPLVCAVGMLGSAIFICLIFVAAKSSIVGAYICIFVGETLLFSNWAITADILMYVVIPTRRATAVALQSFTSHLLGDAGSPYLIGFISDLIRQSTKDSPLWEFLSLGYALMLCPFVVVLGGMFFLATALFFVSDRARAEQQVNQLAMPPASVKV

T2: GLP2R (human, UniProt O95838 1-553)
T2 construct: whole, on cells
T2 sequence (looked up): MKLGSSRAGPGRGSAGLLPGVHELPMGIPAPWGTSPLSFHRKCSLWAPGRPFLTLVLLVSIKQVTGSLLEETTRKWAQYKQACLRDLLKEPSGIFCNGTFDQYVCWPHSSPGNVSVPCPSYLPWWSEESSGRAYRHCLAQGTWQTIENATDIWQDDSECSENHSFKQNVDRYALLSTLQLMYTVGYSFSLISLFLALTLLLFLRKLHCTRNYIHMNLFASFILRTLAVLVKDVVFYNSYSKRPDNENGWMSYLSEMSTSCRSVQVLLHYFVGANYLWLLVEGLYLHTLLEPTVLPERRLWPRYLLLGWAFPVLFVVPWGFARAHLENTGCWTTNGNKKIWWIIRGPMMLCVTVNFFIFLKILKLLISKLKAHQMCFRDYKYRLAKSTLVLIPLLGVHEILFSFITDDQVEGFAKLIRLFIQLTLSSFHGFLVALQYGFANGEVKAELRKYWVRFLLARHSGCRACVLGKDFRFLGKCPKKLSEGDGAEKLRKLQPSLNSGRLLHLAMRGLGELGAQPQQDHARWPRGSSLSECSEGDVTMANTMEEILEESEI

T3: IGFBP4 (human, UniProt P22692 22-258)
T3 construct: whole, on cells; Secreted targets were tethered to the plasma membrane
T3 sequence (looked up): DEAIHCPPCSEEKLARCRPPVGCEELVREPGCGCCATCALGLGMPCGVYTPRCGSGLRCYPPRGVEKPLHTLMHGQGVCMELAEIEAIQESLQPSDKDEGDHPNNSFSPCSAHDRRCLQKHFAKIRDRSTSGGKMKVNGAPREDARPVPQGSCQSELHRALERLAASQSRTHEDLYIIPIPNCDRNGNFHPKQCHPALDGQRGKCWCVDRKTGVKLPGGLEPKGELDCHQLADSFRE

T4: EDN2 (human, UniProt P20800 49-69)
T4 construct: whole, on cells; Secreted targets were tethered to the plasma membrane
T4 chain (looked up): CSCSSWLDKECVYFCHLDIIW

T5: SLC22A23 (human, UniProt A1A5C7 1-686)
T5 construct: whole, on cells
T5 sequence (looked up): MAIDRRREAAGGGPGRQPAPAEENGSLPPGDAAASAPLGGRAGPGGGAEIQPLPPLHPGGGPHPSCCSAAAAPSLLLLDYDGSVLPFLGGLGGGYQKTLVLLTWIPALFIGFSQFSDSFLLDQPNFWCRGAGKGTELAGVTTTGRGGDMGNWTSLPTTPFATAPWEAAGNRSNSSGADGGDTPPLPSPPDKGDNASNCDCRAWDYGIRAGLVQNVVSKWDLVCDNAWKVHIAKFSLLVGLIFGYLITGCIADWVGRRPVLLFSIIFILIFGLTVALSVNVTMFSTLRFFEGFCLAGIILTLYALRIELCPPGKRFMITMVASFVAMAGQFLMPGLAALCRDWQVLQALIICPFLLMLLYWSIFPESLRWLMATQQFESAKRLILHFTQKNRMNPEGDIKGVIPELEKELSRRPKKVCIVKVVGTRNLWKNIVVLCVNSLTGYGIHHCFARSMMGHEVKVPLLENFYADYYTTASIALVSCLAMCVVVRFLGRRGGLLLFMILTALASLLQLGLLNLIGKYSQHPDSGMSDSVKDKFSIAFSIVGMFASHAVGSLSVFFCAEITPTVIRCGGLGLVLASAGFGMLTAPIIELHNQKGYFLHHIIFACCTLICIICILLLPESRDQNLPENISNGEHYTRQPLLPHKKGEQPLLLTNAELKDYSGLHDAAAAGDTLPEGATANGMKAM


What follows are binders tested against T1, SPNS2 (assay: cell microarray on HEK293 cells).
Experimental: (§1) Initially, two pools of compounds were tested. […] To perform this assay, HEK293 cells were plated on a dish and localized spots of cells were transiently over-expressed with a single cDNA encoding for GFP and one of the 6,416 targets. Included in this library were multiple clones for the Nectin family members, including plasma membrane, non-tethered secreted, and tethered secreted forms of Nectin-1, 2, 3, and 4. Secreted protein targets were tethered to the plasma membrane to aid in detection. The molecule pools were incubated on the fixed, over-expressing cell microarrays (n=2 per protein), and binding was visualized using Alexa Fluor 647 streptavidin fluorescence.

Binder	binding result
{Biotin-PEG4′}-CEYDEEFFTALARLRGGDICQYIQA[Lys(Me3)]FQYLPALCIEEILDNLGCS (designed binder, cysteine pairing not given here) [C253]	no binding (tested: 2 µg/mL)
{Biotin-PEG4′}-CDYDEQFFTALKRLRGADICEYIQASFQYLPGECIEEILDNLGCS (designed binder, cysteine pairing not given here) [C208]	no binding (tested: 2 µg/mL)

Each binder was assayed against T2, GLP2R (assay: cell microarray on HEK293 cells).
Experimental: as §1

Binder	binding result
{Biotin-PEG4′}-CEYDEEFFTALARLRGGDICQYIQA[Lys(Me3)]FQYLPALCIEEILDNLGCS (designed binder, cysteine pairing not given here) [C253]	no binding (tested: 2 µg/mL)
{Biotin-PEG4′}-CDYDEQFFTALKRLRGADICEYIQASFQYLPGECIEEILDNLGCS (designed binder, cysteine pairing not given here) [C208]	no binding (tested: 2 µg/mL)

Each binder was assayed against T3, IGFBP4 (assay: cell microarray on HEK293 cells).
Experimental: as §1

Binder	binding result
{Biotin-PEG4′}-CEYDEEFFTALARLRGGDICQYIQA[Lys(Me3)]FQYLPALCIEEILDNLGCS (designed binder, cysteine pairing not given here) [C253]	no binding (tested: 2 µg/mL)
{Biotin-PEG4′}-CDYDEQFFTALKRLRGADICEYIQASFQYLPGECIEEILDNLGCS (designed binder, cysteine pairing not given here) [C208]	no binding (tested: 2 µg/mL)

What follows are binders tested against T6, IGF1 (human, UniProt P05019 49-118) (assay: cell microarray on HEK293 cells).
T6 construct: whole, on cells; Secreted targets were tethered to the plasma membrane
T6 sequence (P05019 49-118): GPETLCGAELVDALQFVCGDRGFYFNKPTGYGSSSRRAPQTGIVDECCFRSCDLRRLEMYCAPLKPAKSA
Experimental: as §1

Binder	binding result
{Biotin-PEG4′}-CEYDEEFFTALARLRGGDICQYIQA[Lys(Me3)]FQYLPALCIEEILDNLGCS (designed binder, cysteine pairing not given here) [C253]	no binding (tested: 2 µg/mL)
{Biotin-PEG4′}-CDYDEQFFTALKRLRGADICEYIQASFQYLPGECIEEILDNLGCS (designed binder, cysteine pairing not given here) [C208]	no binding (tested: 2 µg/mL)

The binders below were run against T7, CXCL12 (human, UniProt P48061 22-93) (assay: cell microarray on HEK293 cells).
T7 construct: whole, on cells; Secreted targets were tethered to the plasma membrane
T7 sequence (P48061 22-93): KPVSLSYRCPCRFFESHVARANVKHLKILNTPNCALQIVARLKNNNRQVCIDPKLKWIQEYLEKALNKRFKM
Experimental: as §1

Binder	binding result
{Biotin-PEG4′}-CEYDEEFFTALARLRGGDICQYIQA[Lys(Me3)]FQYLPALCIEEILDNLGCS (designed binder, cysteine pairing not given here) [C253]	no binding (tested: 2 µg/mL)
{Biotin-PEG4′}-CDYDEQFFTALKRLRGADICEYIQASFQYLPGECIEEILDNLGCS (designed binder, cysteine pairing not given here) [C208]	no binding (tested: 2 µg/mL)

The binders below were run against T8, TRPV5 (human, UniProt Q9NQA5 1-729) (assay: cell microarray on HEK293 cells).
T8 construct: whole, on cells
T8 sequence (Q9NQA5 whole entry): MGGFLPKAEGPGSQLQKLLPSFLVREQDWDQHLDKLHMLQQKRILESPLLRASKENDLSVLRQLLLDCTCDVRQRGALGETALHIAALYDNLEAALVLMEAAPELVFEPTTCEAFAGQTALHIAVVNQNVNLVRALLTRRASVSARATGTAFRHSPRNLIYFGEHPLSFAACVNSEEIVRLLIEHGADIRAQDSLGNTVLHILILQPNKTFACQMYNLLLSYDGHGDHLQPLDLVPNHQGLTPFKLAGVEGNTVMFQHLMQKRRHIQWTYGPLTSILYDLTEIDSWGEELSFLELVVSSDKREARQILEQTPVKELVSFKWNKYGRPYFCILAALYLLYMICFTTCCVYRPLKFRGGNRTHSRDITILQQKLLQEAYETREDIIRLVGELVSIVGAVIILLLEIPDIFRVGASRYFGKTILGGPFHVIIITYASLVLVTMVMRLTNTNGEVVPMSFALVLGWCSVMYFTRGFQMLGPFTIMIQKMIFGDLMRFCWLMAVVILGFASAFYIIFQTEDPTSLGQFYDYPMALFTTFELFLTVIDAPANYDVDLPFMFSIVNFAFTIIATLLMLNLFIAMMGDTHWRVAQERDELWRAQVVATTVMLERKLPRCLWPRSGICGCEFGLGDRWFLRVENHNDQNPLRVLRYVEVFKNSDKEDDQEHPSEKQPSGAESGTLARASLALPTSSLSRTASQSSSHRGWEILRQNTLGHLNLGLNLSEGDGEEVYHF
Experimental: as §1

Binder	binding result
{Biotin-PEG4′}-CEYDEEFFTALARLRGGDICQYIQA[Lys(Me3)]FQYLPALCIEEILDNLGCS (designed binder, cysteine pairing not given here) [C253]	no binding (tested: 2 µg/mL)
{Biotin-PEG4′}-CDYDEQFFTALKRLRGADICEYIQASFQYLPGECIEEILDNLGCS (designed binder, cysteine pairing not given here) [C208]	no binding (tested: 2 µg/mL)

What follows are binders tested against T9, TRPV4 (human, UniProt Q9HBA0 1-871) (assay: cell microarray on HEK293 cells).
T9 construct: whole, on cells
T9 sequence (Q9HBA0 whole entry): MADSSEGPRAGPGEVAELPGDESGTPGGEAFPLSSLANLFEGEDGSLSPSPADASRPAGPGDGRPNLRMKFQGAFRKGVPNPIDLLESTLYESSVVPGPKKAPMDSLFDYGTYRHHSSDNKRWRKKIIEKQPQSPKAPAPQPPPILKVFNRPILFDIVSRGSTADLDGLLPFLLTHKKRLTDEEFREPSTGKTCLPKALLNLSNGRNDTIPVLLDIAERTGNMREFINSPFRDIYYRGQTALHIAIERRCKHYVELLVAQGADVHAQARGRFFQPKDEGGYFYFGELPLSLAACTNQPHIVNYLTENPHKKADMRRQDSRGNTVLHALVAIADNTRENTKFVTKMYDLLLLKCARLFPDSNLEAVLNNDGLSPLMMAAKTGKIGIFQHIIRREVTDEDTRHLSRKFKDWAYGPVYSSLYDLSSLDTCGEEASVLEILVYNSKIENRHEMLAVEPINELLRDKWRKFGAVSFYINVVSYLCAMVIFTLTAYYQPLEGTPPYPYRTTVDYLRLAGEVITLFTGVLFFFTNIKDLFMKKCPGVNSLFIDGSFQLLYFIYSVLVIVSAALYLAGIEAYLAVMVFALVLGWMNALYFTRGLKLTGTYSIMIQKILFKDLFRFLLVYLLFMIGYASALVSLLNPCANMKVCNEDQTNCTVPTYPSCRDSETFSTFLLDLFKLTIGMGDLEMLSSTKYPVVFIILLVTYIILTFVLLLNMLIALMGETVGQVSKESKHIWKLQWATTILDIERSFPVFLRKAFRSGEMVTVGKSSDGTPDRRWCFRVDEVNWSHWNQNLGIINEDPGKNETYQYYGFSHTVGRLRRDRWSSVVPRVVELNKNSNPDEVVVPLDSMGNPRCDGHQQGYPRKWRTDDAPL
Experimental: as §1

Binder	binding result
{Biotin-PEG4′}-CEYDEEFFTALARLRGGDICQYIQA[Lys(Me3)]FQYLPALCIEEILDNLGCS (designed binder, cysteine pairing not given here) [C253]	no binding (tested: 2 µg/mL)
{Biotin-PEG4′}-CDYDEQFFTALKRLRGADICEYIQASFQYLPGECIEEILDNLGCS (designed binder, cysteine pairing not given here) [C208]	no binding (tested: 2 µg/mL)

What follows are binders tested against T10, EGF (human, UniProt P01133 23-1207) (assay: cell microarray on HEK293 cells).
T10 construct: whole, on cells
T10 sequence (P01133 23-1207): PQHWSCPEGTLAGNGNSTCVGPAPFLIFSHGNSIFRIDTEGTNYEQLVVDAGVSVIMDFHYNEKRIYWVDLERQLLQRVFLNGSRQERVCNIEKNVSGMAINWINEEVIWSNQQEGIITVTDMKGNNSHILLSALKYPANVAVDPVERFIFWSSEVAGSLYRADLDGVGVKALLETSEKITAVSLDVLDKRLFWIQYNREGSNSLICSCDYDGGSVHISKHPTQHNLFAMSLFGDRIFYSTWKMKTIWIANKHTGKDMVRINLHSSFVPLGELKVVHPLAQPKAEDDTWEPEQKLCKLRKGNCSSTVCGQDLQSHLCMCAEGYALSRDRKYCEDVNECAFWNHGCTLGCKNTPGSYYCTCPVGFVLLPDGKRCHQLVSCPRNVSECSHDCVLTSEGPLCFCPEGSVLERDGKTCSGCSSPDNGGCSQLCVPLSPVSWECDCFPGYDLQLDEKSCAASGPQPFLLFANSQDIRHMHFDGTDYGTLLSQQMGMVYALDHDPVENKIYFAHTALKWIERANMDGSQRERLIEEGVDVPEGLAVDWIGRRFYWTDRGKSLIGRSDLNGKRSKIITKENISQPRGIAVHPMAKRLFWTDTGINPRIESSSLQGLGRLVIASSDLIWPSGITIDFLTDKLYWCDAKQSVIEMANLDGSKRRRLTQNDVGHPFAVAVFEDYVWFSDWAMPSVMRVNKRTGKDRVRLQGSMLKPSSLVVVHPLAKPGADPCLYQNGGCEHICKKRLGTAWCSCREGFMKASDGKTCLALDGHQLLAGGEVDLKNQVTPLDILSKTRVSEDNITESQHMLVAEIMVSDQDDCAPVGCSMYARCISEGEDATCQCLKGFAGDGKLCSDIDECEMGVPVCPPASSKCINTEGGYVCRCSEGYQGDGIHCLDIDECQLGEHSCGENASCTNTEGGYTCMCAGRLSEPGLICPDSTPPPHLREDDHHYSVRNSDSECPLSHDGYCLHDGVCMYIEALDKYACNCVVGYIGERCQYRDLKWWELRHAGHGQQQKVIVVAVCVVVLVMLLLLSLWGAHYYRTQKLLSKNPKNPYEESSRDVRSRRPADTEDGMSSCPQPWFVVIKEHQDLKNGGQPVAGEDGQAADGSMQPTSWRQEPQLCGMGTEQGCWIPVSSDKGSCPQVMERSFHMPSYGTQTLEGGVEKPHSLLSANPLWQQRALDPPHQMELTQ
Experimental: as §1

Binder	binding result
{Biotin-PEG4′}-CEYDEEFFTALARLRGGDICQYIQA[Lys(Me3)]FQYLPALCIEEILDNLGCS (designed binder, cysteine pairing not given here) [C253]	no binding (tested: 2 µg/mL)
{Biotin-PEG4′}-CDYDEQFFTALKRLRGADICEYIQASFQYLPGECIEEILDNLGCS (designed binder, cysteine pairing not given here) [C208]	no binding (tested: 2 µg/mL)

Target: T4, EDN2
Assay: cell microarray on HEK293 cells
Experimental: as §1

Binder	binding result
{Biotin-PEG4′}-CEYDEEFFTALARLRGGDICQYIQA[Lys(Me3)]FQYLPALCIEEILDNLGCS (designed binder, cysteine pairing not given here) [C253]	no binding (tested: 2 µg/mL)
{Biotin-PEG4′}-CDYDEQFFTALKRLRGADICEYIQASFQYLPGECIEEILDNLGCS (designed binder, cysteine pairing not given here) [C208]	no binding (tested: 2 µg/mL)

These binders were tested against T5, SLC22A23 (assay: cell microarray on HEK293 cells).
Experimental: as §1

Binder	binding result
{Biotin-PEG4′}-CEYDEEFFTALARLRGGDICQYIQA[Lys(Me3)]FQYLPALCIEEILDNLGCS (designed binder, cysteine pairing not given here) [C253]	no binding (tested: 2 µg/mL)
{Biotin-PEG4′}-CDYDEQFFTALKRLRGADICEYIQASFQYLPGECIEEILDNLGCS (designed binder, cysteine pairing not given here) [C208]	no binding (tested: 2 µg/mL)
